The values below come from the DeepSol protein solubility set.

The data set is described as follows: soluble on expression in E. coli; label from the status in PepcDB or PDB records.
As to “MAHHHHHHMADTHFFAEANVLDDPRETTNAYKEIKYDLLRIERSINTEVRKRIEANKNIQQLIEHTANDMINKVLNKITTKIENISFELDKIIKKCDELEKMVGQIRLTLPTKIQTEMMGLKREVSDFFILLNKYANNRKKRNNVLFSKMENMNAYVSNKIHSEVSFTEDDFLFFRRESAKLLASDSDDEQGFRDAFLQEVEEIRDALALTVKAREQSDDDIIQVGAVRCGGAVQRCDVMRWDETRWAYFR”, the “soluble on expression in E. coli” value is given as “not soluble”.
Next, “MAHHHHHHMADYGWTRGKLPKFRARSPFHRQQIARRMVTEMIRKDYCIVGGARAPALRILADHVVELAKAGDTDSRQQLAYFLHDPLMVDKAFDEYPRRFKDMNAKYAMMTRLKSRRRTDAVAMYFVEYKNRDMSDNHKGEDYSAGPERFFLPPRIVETEKGIQRPPHMQMAFDRWASKFKTEEFHHWWRLRHAKLRYWGVRNVPHPSDVDPLWTEKEEEEWHNEMLANTGEYEDLDLDDESYTAAGEGGEPSPAGDGPQPQRVG”: “not soluble”.
On to “MAHHHHHHMAEQFTEDIGVVNKRLLEPVPFVKTNNCIKDVDADLFIRSYATHLKLHNKITYPKWCTFVKTGKGRKLAPLNEDWYFIRASSILRRLYLHPDIGVGFLRRQFSSKQRRGVAPNHTSLASGKILRSILQQLENLGYVEQNPKKKGRRLTTKGENAINNFARYINKKVYNKE”, for which the “soluble on expression in E. coli” value is “not soluble”.
Turning to “MAHHHHHHMAHGSFDAVRKEMETQEKIIATLQRDNESLLREKKEILSRCKQLEHDFEHLEAKHSLLLSAQQDFAVRSNMHTANDSAKIVNLQAQVEELQTNLETEKRRCALLLQERNDLAQSKSDTPSLVGSAEITNVAVVREQQGRSEDIVAKLRESQRIHSIQKSTIDALHSEVTRLESERKVSHSRESNLLREVDSLRTQVRDLESALQQKKGGIRELMSSCQAGSANAQRLKKQETRIRLLEKALLEKDEFTKRAMEELRAEAKKVCERYQSTVAELRQRLEVPKDDPELQKRISTLERENLDLRRALGGASVSLAVESAQPVQKLATEPKHHTDVTDKADKPGGQALKAPGSHELEITHLHSVIERLRAEICEHKQRNITLQSKLDSIHAEWDARLAEMKTNFALQIQTLRSAHNEELSRLEASHQTQLLEISKCSKADRGDSLASRLSRIVEEKGYDASLIAIGERLCFLEKRYCQKEEEKTHELLEMKRVAELEMKIQKEKTDLLLEQKNTQIKRFQVQLDELLAALSILQATS”, the “soluble on expression in E. coli” value is recorded as “not soluble”.
In the case of “MAHHHHHHMAPQSPSEWDNARRAAKRALTISDEYPPATVERIQKLLQRAETTSNDAVLLSELKSLVQSYFQSPQSLQFLRKERVASKGGGIGVVAARKIPAFSIIGVYPGYLDFMSGEQAKCGRPVPKYALMEYNCANYFNEVFVELQTTFTPFINEPNVDEKSNCAWIQEPHRKNGRLSVICVRDIQEGEELTIGYGPIYPRTYPYCYDAYACHQIEGHTTHPCYSLWHWPTLQEADARFVCHIGYIERDDCYVLWKNET” it was “not soluble”; in that of “MAHHHHHHMARRPSRCYRFCKNKPYPKSRFCRGVPDPKIRNFDIGRRRATVDEFPVCIHVVSRELEQIASEALEAARIQANKYMVKRANKDVFHMRTRAHPFHVLRINKMLSCAGADRLQTGMRGAFGKPNGVCARVRIGQILLSMRTKEAYVPQAFEALRRAKMKFPGRQIIVMSKYWGFTNILRTEYEALRDAGKLEQRGTHCKLIAPKGKITMRNVMA”, “not soluble”.
In the case of “MAHHHHHHMAYGDDSKIVEGIVGERNIYKRREESTETNPFQSKHKKRLLFVLDVSASMYRFEGMDHRLSKLLESTVMVMEAFAGFEEKIDYAMVGHNGDSACIELVSFGHSPANQKARMEVCQRMVAHAQYCWSGDNTVEAMRQSIDLVTAEKGDAYLVFVISDANLPRYGIQPSELSAIMRSHKEVQMFCIFIATLGEQASNLQAEMPPGHGFECLDTQALPHILKQIFFSVNLL” it was “not soluble”.
As for “MAHHHHHHMCLDWKYNYMKTRLKVLENNEKDEEIERKLQNNLNIKSLGYVLKAIEILKRKEKMKRYSTFDRHLSYFKKNNINKPQYNEKKILEHRLWAIGCELIEVIGDGNCLFRSISRNLFHKQKYHMYVRKKCVEYMINYKEEYSIYFENNEFQQYIKNMSKNGYWGDELCIKATADAFDCIIYIITSTLENWHLKYESKNNNGMYKKCVFLAYSSPTHYDCFKLMQR”, the “soluble on expression in E. coli” value is on record as “not soluble”.
With “MAHHHHHHMDAAIAQLRGCLEELLTYYPHVLRNVFEVEPSPLAAPKLSQQRPRDSSALADVIEDFLTELTRVLSIGLCDDDLGLWSVLELLECVPARMQAVAEATATAPETAALSKHGAQEPLQQLQRFRFASQLVYLVRSAFPATAPAVRARIFLRLTLNQGCLVAALELLREWCRSELLVFYAASDRGRRNGAAGSASSVALLVQSDTDSDMWNSFVAAIAPVAGPPVAEIAAGAPKVAAQPFHLQLLVPGLDDNSAASHAYYTQVENYACGRQPTRPSALACYRAALRQHSGSARKHDRSFRAASAGEGAASSPKLSPHPAEQLVLRVESLSVDHRTASGKEVAPVSRGNVSYDSSSTLSSRPMTLEPLSFVHRERLRGAKKRRRRHPSLSTAGAVAREEDAAGSPTPEGKTDNTTSDNTGSVAEAALHTSTVVTEAKECQGAPEAGEKAAPPYRDDYASRDDDPQVAPTVGETGAAQAASRALDTVSTDSPASAPHCLSPALRAAESPNRTLDSSSAPALSPELRNLQHRLWLCWLAVVTHAESEERIRITVRDVDANIS”, the “soluble on expression in E. coli” value was “not soluble”.
In the case of “MAHHHHHHMDDYHDDDVHSNYGYEDDEYDDAADDWEAEAAEEEQRAVAEEAARQARLEKKLATRAPVKKEEEEEAVPEDVERAMADMRQVANDIASGSALLSGGDSEELIGNHKLASDADVERVGTMIADRLTSFSDSGHYDKLIVEVFQRLTNHLTSTHLLNEEADRVHRLREELKRAAKAKLKPVEKAPVTQSGLDLDNFEDRGGAAVADNEDETGW” it was “soluble”; in that of “MAHHHHHHMDTTTLKEADMNQMIIQLMEREKKKKKKKNIYEQKKMEPQNYSHMKKFKISPKEEKSLNKEEIKSHLINFFQEQEKIYKDEELNTKNYIIDETKKKEKEVYLNGYYIYCQDFKNEYNNYFNSFIKESEDIKKDLKDLQIQYMDDKILLGNKRKMELDNMLHFYKEKLLDIKNHWDTKNFCDDNLKNIVYDILNVIN”, “not soluble”.
Next, “MAHHHHHHMEANGTLVECKRGESDAVVFRFLIIDAPSPSSVPAYMKLLQRHNVMHIVRACGPTYNAEVFEKQGIVVHGWSFDDGASPTQTVIDNWLNLLEQEKNKSPPETIAVHCVSGLGRAPILVALALVEYGGMPPLDAVGYVRGRRKGAINQVQLNWLMRYKPRHQESNEGSLICARCTLM”: “soluble”; “MAHHHHHHMEDGEALDLQDALKPEVKERPVRLIKIERHDGTKAFLNSVIEMAQVVLDNMPPDACYKDIAIKLKTKLDEVEKGTWHVIVGSHFGANVTNDSETLVNFKIDEMHILLFRSGPPERPMSLNDEGS”: “soluble”.
In the case of “MAHHHHHHMEEESHALKDPWFVSYIPQLTTEIVKNNYEGDWNLAKEALQQPLDYVRTVEEFWSTLNSLPKLHQLESSSTFVFARNNVDASYEAFPNGTRIIVDIRKAAMAEKATAVILSSVIGESVSQEVCGGKPICDVLRLSSRPNKESPELVRLEVWLSDQTYGKAVLAYVRKALNDVGMSQPHVIFGESLFEKEKKKKGK” it was “soluble”; in that of “MAHHHHHHMEHLSVTKNSQMNNLAAYNNQEANYSLAAPNQEEYSENDLFYTFYDKFNEIFLFIQNLKENKNDLEDEVDDNLIKTLHNLCLEFLNYIKQINDFGHMNLSKNDQDLIIESYEKFVRQCKQYNDKPQVKQLENEISNLLDLLFNNTSGRHNSWRSGKKRKKREKEKKKLISPP”, “soluble”; in that of “MAHHHHHHMELCLYNSKNGYLEALLRGFRSSFLTPEEYKKLTEVDTLEDLKSVLEDTDYGSFMMDEPSPIAVTTIAQKCKEKMAHEFNYIRAQAEEPLRTFLDYIAKEKMIDNVIILIHGTLNKKPAEELLSRVDPLGYFPQMKAITTMDVQNSHDDVLKVLLIETPIGTYFDKYISANASNEKNNVTTILNEMDIEILRNTLKKAWLEDFYDFIRELGGKTEEVMGHILKSVADFRVLSVTLNTINSSLSLELQKDRNDMFPCFGYLYPEGTDRIRKCWNNETVQAALENYPTYYNLYEECKQFYMKNENMQDSKIVDHKVKSLEDLLYVKLVKLCETAFDQHCHFGIFYAWVKLKEQEIRNIVWISDMILMNRKDCIDSIIPIFEPQI”, “not soluble”.
On to “MAHHHHHHMELYQDNKINNVGNIEINQCDGVIKKENDLHVSVIKPITKKIIHCDNMENKMKINAFYKPVELVEEIKNYVHKGDTHLVKLYEDFKNKKDKKVKMKNEYMTKLKNLHILNMINNKKKENECGVVNKNNIVHFNLFNENEDVTPKIETVYIPKLEKNIEVVSHLKENVNVDYTYMVPKPVVIPIEVPILKFRDHFKIIPIRKKIIPVIKYTDNIIYVDCCVEKPYIVYENVIIPVPCDIPIEQKKYIDKVPPI”, for which the “soluble on expression in E. coli” value was “not soluble”.
Turning to “MAHHHHHHMENNNHGCNMHDDNFDLLMKKICNELKKGDKNKNGLIMYNTFIDVLDLFQIEYGSSIIDYLMKHCVVTEDGFVNYKNLWLIHDPSKTMRNNSESVEESINPKFMDIQDRYEDIDKYTQEKNEIIRKLYSQWDKCLLRDDEFKAKLINGNIDITPEFERSLYLYGPSRSLSFANVMKTLYINDSKNRKNRNNFVSKIKDEKWRKLNIDENEQQCFQDIHRNPIAWEGSNVTDADNLIQNVELISNYLRGEENVNMRKEEFISHDFFNNTVKNLIKNYISNKISESEFYLCLNKLNISVTPQLNNLIKCHELDSNGKFKDFATTINRCIPKNLLHSLQRRVQLYGAQKNDKDSKLNFSYNNCCCDRLCPNVTDDNPYSNENIDKH”, the “soluble on expression in E. coli” value is listed as “not soluble”.
In the case of “MAHHHHHHMEPFTWLPAERYFHPLLNSIGAYQRYTYSLRAVCDAQRQKLLPGGDIEQNPGPIAVLQMNVSCLTPSKLATLMAQGADIIAIQETWKSSEQIASMHTGDHVLHAQSRIGKGSGVAVLVRKTLRSKRVPLTIPQHDTSLEVVVVQVALDQNRDLIVASTYMRPPPQVTQSFRRLVNCLPASSPLLLCGDFNMHHPQWEPFLESSPSEVAAEFLELCTDAGLTLVNTPGDITYARGTRERSCIDLTWSKHLTVSDCSASVSPLSDHYMLTFTLHQAFMDTIPSAPPSAPRTFYS” it was “not soluble”; in that of “MAHHHHHHMEVAFTISPGERQHVEYLADLFAIILAIEKVEKATLRDIITQEQYSSTITRLLDKYKSTVTYLEQSRNPFYSTIDSFWENYGSRCPAARTRIQLSFDDAKQQQQQQQDSDVNGTVDPRLVLECGQHFITLMDSLKLQQTAVDQLYTLLADLVRGLQRLGVTDQSFFHRLTTWKEKFDTMNASDELSERDTREFAFVLECGYQAFHAYLSESSARRPKA”, “not soluble”; in that of “MAHHHHHHMEVRRIAPIGRAAVLVMKNVSGNMWAGYSDGAIRVFDHVTQKVLRQSTQHTAAVYAMCAADGYVFTGGADGKVYQWMADDLHYSHMYYGHRNAVRSLTTYTDQKSRCRYVVSGSDDGTVKVWEATVAKTSGTPRKDGGCVSTLDGQGRCVLSILVLEDAAELWAGSEDSVIRVWDLSSMTVTTVITGHRAPVVTLLKVGDTVWSGSKDGAITITNRFSKDIVHQASQPPANRSAAPGGQRSSVSILPVTRTVVYEVWATAVDGSWQCWNFTVPEGVKSYVEEADVLKGGWCPSHSRPQRLSRVGQRSSRNVRSSSVNEYSENGLHSASARARRSDEKLRASVAQTRRTVAVLLAGSKVHQGLGAHNGNGFAHRNEAASVDIVDDDDTPLDIVAESIRNDHTAETQREVQLKQAALAKERRKSAKLRAALEMMCKDPVAIAEEGAKKVFRRTDSLVIAETLAMERQSGKLGSPTTEKLVGVSSQLELLKAQNKAMAAAVTESKKVPD”, “soluble”.
